From the supplement of paper PMC10126150
± gives the standard deviation of the averaged measurements.

Tested on: ATP
Test: switch fluorescence ratio, 500 uM ATP over buffer (Cy3 cluster intensity, sum of 5 cycles each) (fold (ratio)); higher = stronger signal-on switching upon ATP binding; sequences stand for … in TCGTCGGCAGCGTCAGATGTGTATAAGAGACAGTTTTTTTTTTTTTTTTTTTTTTTTT…TC
Settings: aptamer strand: ATP DNA aptamer (quencher-CACCTGGGGGAGTATTGCGGAGGAAGG + anchor), 100 nM annealed; ATP concentration: 500 uM
Outline: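 Clusters carrying Cy3-labelled switching strands on a modified Illumina MiSeq flow-cell were annealed to 100 nM quencher-labelled ATP aptamer and imaged in selection buffer. They were imaged again after 15 min with 500 uM ATP at 22 °C, over five buffer/ATP cycles with NaOH stripping and re-annealing in between. For each cluster, the fluorescence ratio is the summed Cy3 intensity of the target cycles divided by that of the buffer cycles, averaged per switch-domain sequence. Clusters outside 100-1000 RFU were left out.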
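Note: ATP exposure 15 min at 22 °C before imaging.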

| Sequence | switch fluorescence ratio |
| --- | --- |
| AGGAGTTCTT | 0.989 ± 0.032 |
| AGGAGTTTGG | 0.981 ± 0.015 |
| AGGATAAATT | 0.983 ± 0.025 |
| AGGATACATT | 1.02 ± 0.02 |
| AGGATATGGA | 0.997 ± 0.022 |
| AGGATCTATG | 1.03 ± 0.021 |
| AGGATGAGCT | 0.969 ± 0.032 |
| AGGATGGTAA | 1 ± 0.02 |
| AGGATGGTGG | 1.02 ± 0.037 |
| AGGATGTGAC | 1.01 ± 0.02 |
| AGGATTCGGC | 1.04 ± 0.059 |
| AGGATTGTGA | 1.02 ± 0.028 |
| AGGATTTACT | 1.01 ± 0.026 |
| AGGATTTAGG | 0.983 ± 0.031 |
| AGGCACAGAA | 1.019 ± 0.0098 |
| AGGCACGCGC | 1.01 ± 0.013 |
| AGGCAGTTCG | 0.996 ± 0.02 |
| AGGCAGTTGG | 0.966 ± 0.019 |
| AGGCATCGGA | 0.9953 ± 0.0063 |
| AGGCATTAAT | 1.01 ± 0.018 |
| AGGCCAGGGG | 1.06 ± 0.1 |
| AGGCCCACAT | 1.01 ± 0.046 |
| AGGCCCGAGC | 0.98 ± 0.073 |

| Sequence | switch fluorescence ratio |
| --- | --- |
| AGGCCCGGGC | 0.958 ± 0.023 |
| AGGCCGGAGC | 1.06 ± 0.036 |
| AGGCCGGGGG | 0.992 ± 0.025 |
| AGGCCGTTCG | 0.9976 ± 0.0073 |
| AGGCCTTTTC | 1.008 ± 0.0026 |
| AGGCGAAACG | 0.97 ± 0.065 |
| AGGCGACGTT | 0.9931 ± 0.0069 |
| AGGCGAGGGG | 0.988 ± 0.032 |
| AGGCGATAAT | 1.12 ± 0.13 |
| AGGCGATCGG | 0.99 ± 0.023 |
| AGGCGCGGTG | 1.03 ± 0.0079 |
| AGGCGCTTAT | 1.33 ± 0.55 |
| AGGCGGAGCT | 0.9926 ± 0.0033 |
| AGGCGGATTT | 1 ± 0.044 |
| AGGCGGCTGA | 1.05 ± 0.021 |
| AGGCGGGAGG | 1.034 ± 0.0056 |
| AGGCGGGGGT | 1.018 ± 0.0094 |
| AGGCGGGTAA | 1.022 ± 0.0082 |
| AGGCGTGGCT | 0.982 ± 0.064 |
| AGGCGTTGGT | 1.05 ± 0.11 |
| AGGCTAACCG | 0.985 ± 0.019 |
| AGGCTACGTC | 0.9925 ± 0.0061 |
| AGGCTGGCTC | 0.98 ± 0.01 |

| Sequence | switch fluorescence ratio |
| --- | --- |
| AGGCTGTGGG | 1.03 ± 0.015 |
| AGGCTTATCT | 0.989 ± 0.025 |
| AGGCTTGAGG | 0.9904 ± 0.0044 |
| AGGCTTTGGG | 0.978 ± 0.0099 |
| AGGGAAAAGG | 1.02 ± 0.031 |
| AGGGAAATAG | 1.02 ± 0.023 |
| AGGGAAATCT | 1.034 ± 0.01 |
| AGGGAAGAAC | 1.006 ± 0.0073 |
| AGGGAAGGGC | 1.032 ± 0.0084 |
| AGGGAATTGG | 1.01 ± 0.044 |
| AGGGACAACT | 1.08 ± 0.0015 |
| AGGGACGAGT | 1.07 ± 0.11 |
| AGGGACGCGC | 1.07 ± 0.018 |
| AGGGACGGTG | 1 ± 0.056 |
| AGGGAGAAGG | 1 ± 0.011 |
| AGGGAGATTT | 0.99 ± 0.03 |
| AGGGAGCCCG | 1.01 ± 0.036 |
| AGGGAGCTCC | 1.01 ± 0.025 |
| AGGGAGGAGC | 0.923 ± 0.045 |
| AGGGAGGGGT | 0.983 ± 0.021 |
| AGGGAGTTAT | 1 ± 0.0014 |
| AGGGATACTG | 1.072 ± 0.0048 |
| AGGGATCCTT | 1.02 ± 0.031 |

| Sequence | switch fluorescence ratio |
| --- | --- |
| AGGGATTAGC | 0.988 ± 0.015 |
| AGGGCAAAAT | 1.02 ± 0.035 |
| AGGGCAAGAG | 1.38 ± 0.054 |
| AGGGCAAGTG | 0.996 ± 0.034 |
| AGGGCAAGTT | 1.01 ± 0.064 |
| AGGGCAGAGG | 0.98599 ± 0.00021 |
| AGGGCAGCGG | 1.03 ± 0.033 |
| AGGGCAGTAT | 1.06 ± 0.11 |
| AGGGCCGGCG | 1 ± 0.031 |
| AGGGCGCGGA | 1.05 ± 0.016 |
| AGGGCGCGTT | 0.9645 ± 0.0028 |
| AGGGCGGTCA | 0.996 ± 0.025 |
| AGGGCGTATT | 0.974 ± 0.026 |
| AGGGCGTCTG | 1.01 ± 0.058 |
| AGGGCTAGTA | 1 ± 0.034 |
| AGGGGAAGAC | 1.29 ± 0.41 |
| AGGGGAAGGG | 1.02 ± 0.012 |
| AGGGGAATGT | 0.979 ± 0.026 |
| AGGGGACTTG | 1.01 ± 0.06 |
| AGGGGAGACC | 0.9775 ± 0.0096 |
| AGGGGAGGAG | 0.974 ± 0.017 |
| AGGGGATAGC | 1.01 ± 0.017 |
| AGGGGATGGC | 0.946 ± 0.017 |

| Sequence | switch fluorescence ratio |
| --- | --- |
| AGGGGATTAC | 1.062 ± 0.0014 |
| AGGGGATTCA | 1.02 ± 0.02 |
| AGGGGATTTT | 1.04 ± 0.056 |
| AGGGGCAAAT | 1.01 ± 0.029 |
| AGGGGCAAGA | 1.04 ± 0.032 |
| AGGGGCACGA | 1.03 ± 0.024 |
| AGGGGCAGGA | 0.941 ± 0.06 |
| AGGGGCATAG | 1.007 ± 0.003 |
| AGGGGCCGGT | 1.01 ± 0.014 |
| AGGGGCGGGA | 0.962 ± 0.041 |
| AGGGGCTAGG | 0.983 ± 0.033 |
| AGGGGCTTAT | 1.01 ± 0.014 |
| AGGGGCTTGC | 0.956 ± 0.036 |
| AGGGGCTTTG | 1.03 ± 0.032 |
| AGGGGCTTTT | 0.998 ± 0.012 |
| AGGGGGAAGC | 1.02 ± 0.027 |
| AGGGGGACAG | 0.9761 ± 0.0039 |
| AGGGGGAGGG | 1.01 ± 0.03 |
| AGGGGGAGTA | 0.993 ± 0.027 |
| AGGGGGCCGC | 0.976 ± 0.087 |
| AGGGGGCCGT | 0.982 ± 0.042 |
| AGGGGGCTCT | 1.02 ± 0.029 |
| AGGGGGGAGT | 1.02 ± 0.031 |

| Sequence | switch fluorescence ratio |
| --- | --- |
| AGGGGGGATG | 0.992 ± 0.022 |
| AGGGGGGCCA | 1.02 ± 0.028 |
| AGGGGGGCTC | 0.98 ± 0.04 |
| AGGGGGGGA | 0.9821 ± 0.0079 |
| AGGGGGGGTA | 0.997 ± 0.033 |
| AGGGGGGGTT | 0.992 ± 0.033 |
| AGGGGGGTAT | 0.993 ± 0.027 |
| AGGGGGTAAT | 1.01 ± 0.049 |
| AGGGGGTCTA | 1.013 ± 0.0014 |
| AGGGGGTGTC | 1.075 ± 0.0097 |
| AGGGGGTTCG | 1.02 ± 0.027 |
| AGGGGTAAAG | 0.955 ± 0.021 |
| AGGGGTAAGG | 1.03 ± 0.033 |
| AGGGGTAAGT | 0.981 ± 0.011 |
| AGGGGTATGG | 0.998 ± 0.017 |
| AGGGGTCAGG | 1.022 ± 0.0055 |
| AGGGGTGAAA | 0.987 ± 0.021 |
| AGGGGTGATG | 0.9827 ± 0.001 |
| AGGGGTGGTC | 1.04 ± 0.017 |
| AGGGGTGTG | 1 ± 0.046 |
| AGGGGTTAAG | 0.954 ± 0.024 |
| AGGGGTTAAT | 0.985 ± 0.035 |
| AGGGGTTGTG | 1 ± 0.024 |

| Sequence | switch fluorescence ratio |
| --- | --- |
| AGGGGTTGTT | 1.07 ± 0.091 |
| AGGGGTTTGA | 1.01 ± 0.047 |
| AGGGTAAAGG | 0.989 ± 0.019 |
| AGGGTAATGG | 1.03 ± 0.021 |
| AGGGTATCTC | 1.08 ± 0.1 |
| AGGGTATGAT | 0.99 ± 0.025 |
| AGGGTATTTC | 1.02 ± 0.012 |
| AGGGTCCACG | 0.947 ± 0.015 |
| AGGGTCTGCG | 0.981 ± 0.025 |
| AGGGTCTGGG | 0.993 ± 0.034 |
| AGGGTGAATA | 1.005 ± 0.0027 |
| AGGGTGACAT | 0.999 ± 0.013 |
| AGGGTGACGG | 1.02 ± 0.031 |
| AGGGTGATTG | 1.009 ± 0.0077 |
| AGGGTGGAGC | 1.07 ± 0.092 |
| AGGGTGGCGC | 1.02 ± 0.021 |
| AGGGTGGCGT | 0.9459 ± 0.0075 |
| AGGGTGGCTA | 1.011 ± 0.0015 |
| AGGGTGTGGT | 0.9841 ± 0.0039 |
